Laboratory results as given in PMC7343719, “Immobilization of the Highly Active UDP-Glucose Pyrophosphorylase From Thermocrispum agreste Provides a Highly Efficient Biocatalyst for the Production of UDP-Glucose” (Frontiers in Bioengineering and Biotechnology, 2020).

Molecular target: UDP-glucose pyrophosphorylase from Thermocrispum agreste DSM 44070 (TaGalU) (Thermocrispum agreste DSM 44070)
Experiment: SEC; Superdex 200 10/300 GL 24 mL column, non-denaturing, 50 mM Hepes pH 7.0, 1 mM MgCl2; calibrated with protein standards

stoichiometry N: 6
Substance: UDP-glucose pyrophosphorylase from Thermocrispum agreste DSM 44070 (TaGalU) (enzyme)
